B1: CPEB3 Ribozyme (parent)
chain: GGGGGCCACAGCAGAAGCGUUCACGUCGCGGCCCCUGUCAGAUUCUGGUGAAUCUGCGAAUUCUGCUGU

Variants of: B1
Test: self-cleavage, relative activity (ratio to wild type); higher = more cleavage; co-transcriptional

Compared with C33A A59U, C33A A59G is higher in self-cleavage: 0.475 for the first, 0.738 for the second.

Compared with C32A A60G, C32A A59U is lower in self-cleavage: 0.454 for the first, 0.445 for the second.

First: G31U G68C
Second: G31U G68U
The self-cleavage of the first is lower: 0.958 for the first, 0.974 for the second.

Compared with C32G A51G, C33A U38C is higher in self-cleavage: 0.48 for the first, 0.72 for the second.

Going from C33A U38A to G31A U67G, the self-cleavage rises from 0.804 to 1.01.

Compared with G31U U53C, C32U U55C is higher in self-cleavage: 0.354 for the first, 0.837 for the second.

First: C32A U69A
Second: C32A U69G
The self-cleavage of the first is lower: 0.965 for the first, 0.983 for the second.

Going from C32A U36G to C33A G41C, the self-cleavage rises from 0.263 to 0.343.

Compared with C32U U61A, C32G U49G is lower in self-cleavage: 0.893 for the first, 0.371 for the second.

First: C32U C54G
Second: C32U A52C
The self-cleavage of the first is lower: 0.819 for the first, 0.913 for the second.

Compared with C33G U69C, G31U U49G is lower in self-cleavage: 0.972 for the first, 0.421 for the second.

First: C33U C35A
Second: C33G U55C
The self-cleavage of the first is lower: 0.233 for the first, 0.282 for the second.

Going from C33G U36C to C33G G68U, the self-cleavage rises from 0.531 to 0.861.

First: C33G G68C
Second: C33A C57U
The self-cleavage of the first is higher: 0.877 for the first, 0.343 for the second.

First: C32U G47A
Second: C32U G47C
The self-cleavage of the first is higher: 0.971 for the first, 0.97 for the second.

Going from G31U G56C to C32U U38G, the self-cleavage falls from 0.385 to 0.294.

First: C32U U38A
Second: C33G U53C
The self-cleavage of the first is higher: 0.947 for the first, 0.407 for the second.

Going from C33U G65A to C33U G65C, the self-cleavage falls from 0.919 to 0.669.

Compared with C32U G58C, C32U G58U is higher in self-cleavage: 0.963 for the first, 0.995 for the second.

First: C32U A51G
Second: C32U A51U
The self-cleavage of the first is higher: 1 for the first, 0.982 for the second.

Going from G31C G58C to G31C G58U, the self-cleavage rises from 0.179 to 0.209.

Compared with C32A G68C, G31U U62A is lower in self-cleavage: 0.913 for the first, 0.27 for the second.

First: C33G U46A
Second: C33A U69A
The self-cleavage of the first is lower: 0.438 for the first, 1 for the second.

Going from C34A A60C to C34A A60G, the self-cleavage rises from 0.313 to 0.44.

First: C32A U62G
Second: C32A U62A
The self-cleavage of the first is higher: 0.324 for the first, 0.281 for the second.

First: C33G A40G
Second: G31A U61C
The self-cleavage of the first is higher: 0.648 for the first, 0.327 for the second.

First: C32G C54U
Second: C32G G68U
The self-cleavage of the first is lower: 0.594 for the first, 0.815 for the second.

Compared with G31U C33A, C32A G50U is higher in self-cleavage: 0.235 for the first, 0.707 for the second.

Going from C33U C34G to G31U C57G, the self-cleavage falls from 0.258 to 0.236.

First: C32A C45U
Second: C32A C45A
The self-cleavage of the first is higher: 0.753 for the first, 0.586 for the second.

First: C33A C45A
Second: C33A C45G
The self-cleavage of the first is lower: 0.523 for the first, 0.665 for the second.

Compared with C32A G58U, C32U C34U is higher in self-cleavage: 0.914 for the first, 0.924 for the second.

Going from C32U C34G to C32G U46C, the self-cleavage rises from 0.413 to 0.594.

Compared with C33A G47U, C33U U36A is lower in self-cleavage: 0.961 for the first, 0.218 for the second.

First: C33U U62G
Second: C33U U62A
The self-cleavage of the first is lower: 0.845 for the first, 0.956 for the second.

First: C33U U62C
Second: C33U A52U
The self-cleavage of the first is lower: 0.847 for the first, 0.922 for the second.

First: C33U A52G
Second: C32U G50C
The self-cleavage of the first is higher: 0.993 for the first, 0.991 for the second.

Compared with C33A G37C, C33G is higher in self-cleavage: 0.265 for the first, 0.668 for the second.

First: C33U
Second: C33A
The self-cleavage of the first is higher: 0.994 for the first, 0.916 for the second.

First: C32G G41U
Second: G31U A60C
The self-cleavage of the first is higher: 0.328 for the first, 0.291 for the second.

First: C32A U44C
Second: G31U C32A
The self-cleavage of the first is higher: 0.482 for the first, 0.321 for the second.

First: G31U C63A
Second: G31U C63G
The self-cleavage of the first is lower: 0.25 for the first, 0.454 for the second.

Going from G31U U61C to G31C C54U, the self-cleavage rises from 0.258 to 0.308.

C32A C57A and C33U G37U are the same in self-cleavage: 0.245 for the first, 0.245 for the second.

Going from C33G C66G to C32A G47U, the self-cleavage rises from 0.625 to 0.897.

Going from G31U C54A to C32A C33G, the self-cleavage falls from 0.306 to 0.258.

First: C33G C34A
Second: C33G C34U
The self-cleavage of the first is lower: 0.253 for the first, 0.671 for the second.

Going from C33G C34G to C32A C34G, the self-cleavage rises from 0.217 to 0.228.

Compared with G31U U36C, C33A U46G is higher in self-cleavage: 0.516 for the first, 0.737 for the second.

Compared with C33A U46C, C33A U46A is lower in self-cleavage: 0.847 for the first, 0.617 for the second.

Going from C33U G50U to G31U G37A, the self-cleavage falls from 1 to 0.206.

Compared with C32A G65C, C32A G65U is lower in self-cleavage: 0.459 for the first, 0.418 for the second.

Compared with C33G A52U, G31U A51C is higher in self-cleavage: 0.444 for the first, 0.628 for the second.

Compared with G31U A51U, G31C A42C is lower in self-cleavage: 0.805 for the first, 0.227 for the second.

Going from C32U A40G to C32U A40U, the self-cleavage falls from 0.95 to 0.871.

First: C32U A40C
Second: C32U U49C
The self-cleavage of the first is lower: 0.734 for the first, 1 for the second.

Compared with C32U U49G, C32A A52G is lower in self-cleavage: 1.01 for the first, 0.431 for the second.

Going from C32A G41C to C32G A52G, the self-cleavage rises from 0.322 to 0.364.

First: C32G A52U
Second: C32U C63G
The self-cleavage of the first is lower: 0.48 for the first, 0.933 for the second.

Going from C32A U43G to C32G U44C, the self-cleavage rises from 0.374 to 0.452.

First: C33U U67C
Second: C33G U49G
The self-cleavage of the first is higher: 0.971 for the first, 0.692 for the second.

Going from C32U G41C to C32U G41U, the self-cleavage falls from 0.858 to 0.856.

Going from G31U A59G to G31U A59C, the self-cleavage falls from 0.514 to 0.356.

Compared with G31U U44A, G31U U44G is lower in self-cleavage: 0.577 for the first, 0.3 for the second.

Compared with C32G U55A, C33A C63U is higher in self-cleavage: 0.268 for the first, 0.851 for the second.

First: C33A C63A
Second: C34A A51C
The self-cleavage of the first is lower: 0.611 for the first, 0.615 for the second.

Compared with C34A A51U, C32U U36A is lower in self-cleavage: 0.521 for the first, 0.216 for the second.

Going from C32U U36C to G31C C57A, the self-cleavage falls from 0.973 to 0.163.

Going from G31C C57U to C33U G41A, the self-cleavage rises from 0.184 to 0.827.

Going from C33A U61G to C32A C63A, the self-cleavage falls from 0.5 to 0.317.

Going from C32U U69A to C33A A40U, the self-cleavage falls from 1.03 to 0.375.

Going from C33A A40C to C33U C45U, the self-cleavage rises from 0.339 to 0.976.

Compared with C32A U38A, G31C U38A is lower in self-cleavage: 0.791 for the first, 0.237 for the second.

Compared with C32G G56U, C32G G56A is higher in self-cleavage: 0.308 for the first, 0.354 for the second.

Compared with C32G G56C, C32G U69G is higher in self-cleavage: 0.218 for the first, 0.775 for the second.

Going from C32G U69A to C33A G68C, the self-cleavage rises from 0.709 to 0.967.

Compared with C33G C35U, G31C U64G is higher in self-cleavage: 0.184 for the first, 0.251 for the second.

Compared with C33G C63A, C32U G56C is higher in self-cleavage: 0.323 for the first, 0.858 for the second.

Going from C33G U44A to C33G A51C, the self-cleavage rises from 0.29 to 0.335.

Compared with C33A U67C, C32U C57A is lower in self-cleavage: 0.928 for the first, 0.339 for the second.

Compared with C33A A52G, C33A A52C is lower in self-cleavage: 0.785 for the first, 0.582 for the second.

First: C33A A52U
Second: C32G A60C
The self-cleavage of the first is higher: 0.454 for the first, 0.194 for the second.

Going from C32G A60U to G31U G58A, the self-cleavage rises from 0.19 to 0.482.

G31U G58U gave a self-cleavage of 0.86.

From the RNAGym collection of RNA variant scans (doi:10.7554/elife.80360)
